Experimental data reported in patent publication US12180473B2, “Chimeric RNA-driven genomic rearrangement in mammalian cells” (priority 2018, dated 2024).
Entries after “also recorded” stand apart in the source; their conditions may differ.

Tested on: TMPRSS2-ERG fusion
Experiment: RT-PCR detection of induced endogenous TMPRSS2-ERG fusion transcript in LNCaP cells expressing input RNA
Details: for induction of endogenous TMPRSS2-ERG fusion transcript (RT-PCR): LNCaP cells transfected with input RNA plasmid, DHT for 3 days; for Cell line(s) identified: fusion gene partners TMPRSS2-ERG, LNCaP
Procedure: LNCaP cells were cultured in this special medium for 24 hrs prior to plasmid transfection.
Transfection was performed using Turbofect transfection reagent (Thermo Scientific, #R0531) according to manufacturer's protocol. Briefly, 1 μg of a particular plasmid was first diluted in 100 μl of the serum-free DMEM followed by immediate mixing by pipetting. 4 μl of the transfection reagent was then added to the diluted DNA followed by mixing and incubation for 20 min. The DNA/transfection reagent mixture was then added drop wise to a well containing LNCaP cells in 1 ml medium.
For treating cultured cells, concentrated DHT stock was diluted as 10× working solutions (for example, for 0.9 μM final concentration, 10× is prepared as 9.0 μM) with the appropriate complete culture medium and used immediately. […] Six hrs post transfection, 111 μl of fresh 10× DHT working solutions was added to each well of 12-wells plate containing 1 ml medium and transfected cells.
Briefly, cells were suspended in 200 μl of PBS buffer and were then lysed with 400 μl of lysis buffer. The sample was then passed through the filter assembly resulting in the binding of the nucleic acids to the filter. The filter containing nucleic acids was then incubated with DNase I dissolved in DNase incubation buffer to degrade genomic and plasmid DNAs. The column was then rinsed with wash buffer and total RNA then eluted in a new tube for further analysis.
After the addition of dNTPs, the mixture was denatured at 65° C. for 5 minutes. This was followed by the addition of a master-mix containing 1× superscript buffer, 10 mM DTT, 5 mM Magnesium chloride, RNaseOUT and Superscript III reverse transcriptase. Reactions were carried out at 50° C. for 50 minutes and then terminated by incubation at 85° C. for 5 minutes. cDNA was then treated with RNase-H for 20 minutes at 37° C. to degrade RNA in DNA/RNA hybrid. 1 μl of cDNA was used as template for each subsequent PCR reaction.
The Denaturation, Annealing and Extension steps were performed 32 cycles for induced fusion RNA and 27 cycles for input RNA.

Molecule	induction of endogenous TMPRSS2-ERG fusion transcript (RT-PCR)	Cell line(s) identified	induction of endogenous TMPRSS2-ERG fusion transcript (RT-PCR) (listed as antisense-3)
Antisense-1: input RNA, SEQ ID NO: 4 (nucleic acid) antisense: TCAGATCGCCTGGAGACGCCATCCACGCTGTTTTGACCTCCATAGAAGACACCGGGACCGATCCAGCCTCCCCTCGAAGCTGATCCTGAGAACTTCAGGCTCCTGGGCAACGTGCTGGTCTGTGTGCTGGCCCATCACTTTGGCAAAGAATTCCTTGAGCCATTCACCTGGCTAGGGTTACATTCCATTTTGATGGTGACCCTGGCTGGGGGTTGAGACAGCCAATCCTGCTGAGGGACGCGTGGGCTCATCTTGGAAGTCTGTCCATAGTCGCTGGAGGAGGACGCGGTCATCTCTGTCTTAGCCAGGTGTGGCGTTCCGTAGGCACACTCAAACAACGACTGGTCCTCACTCACAACTGATAAGGCTTCCTGCCGCGCTCCAGGCGGCGCTCCCCGCCCCTCGCCCTCCGCCTCCGCCTCCGCCTCCTGCTTAGCTCGCGCCTACTCAAGCTTATCGATACCGTCGACCTCGAGGGCCCAGATCTAATTCACCCCACCAGTGCAGGCTGCCTATCAGAAAGTGGTGGCTGGTGTGGCTAATGCCCTGGCCCACAAGTATCACTAAGCTCGCTTTCTTGCTGTCCAATTTCTATTAAAGGTTCCTTTGTTCCCTAAGTCCAACTACTAAACTGGGGGATATTATGAAGGGCCTTCCGGAGCATCTGGATTCTGCCTAATAAAAAACATTTATTTTCATTGCAAAAAAA	induced a clear band of 721 bp	LNCaP	–
Antisense-3: input RNA, SEQ ID NO: 6 (nucleic acid) antisense: TGTGCTCGCTTCGGCAGCACATATACTAACATTGGAACGATCCTGCAGCTTGAGCCATTCACCTGGCTAGGGTTACATTCCATATTGATGGTGACCCTGGCTGGGGGTTGAGACAGCCAATCCCGGACCCCGAGCCGGGACCCTGGTACCGGCGCCGCTCACCTGCCGCGCTCCAGGCGGCGCTCCCCGCCCCTCGCCCTCCGCCAGACAGGAGTGAGAGATGGAAGCTCGCGCCTACTC	unable to induce fusion	–	inability of antisense-3 to induce; also recorded: did not
Antisense-7: input RNA, SEQ ID NO: 10 (nucleic acid) antisense: TGTGCTCGCTTCGGCAGCACATATACTAACATTGGAACGATCCTGCAGCTTGAGCCATTCACCTGGCTAGGGTTACATTCCATATTGATGGTGACCCTGGCTGGGGGTTGAGACAGCCAATCCCGGACCCCGAGCCGGGACCCTGGTACCGGCGCCGCTCACCTGCCGCGCTCCAAGACAGGAGTGAGAGATGGAAGCTCGCGCCTACTC	loss of induction; also recorded: did not	–	–
Antisense-5A: input RNA, SEQ ID NO: 13 (nucleic acid) antisense: TGTGCTCGCTTCGGCAGCACATATACTAACATTGGAACGATCCTGCAGGCCGCTCACCTGCCGCGCTCCAGGCGGCGCTCCCCGCCCCTCGCCCTCCGCCAGACAGGAGTGAGAGATGGAAGCTCGCGCCTACTC	loss of induction	–	–
Antisense-5B: input RNA, SEQ ID NO: 14 (nucleic acid, input RNA, chemistry not given here) antisense: TGTGCTCGCTTCGGCAGCACATATACTAACATTGGAACGATCCTGCAGCTTGAGCCATTCACCTGGCTAGGGTTACATTCCATATTGATGGTGACCCTGGCTGGGGGTTGAGACAGCCAATCC	loss of induction	–	–
Antisense-C3: input RNA, SEQ ID NO: 20 (nucleic acid) antisense: TGTGCTCGCTTCGGCAGCACATATACTAACATTGGAACGATCCTGCAGGTCCTGGTAACACTATTCATGCACTAACAAGTTGGTTGCCAGTGAGACTTGATTATTATGACTCTGGGAGTGCTGCCCAGGCGGGGGCCGTGGAGGGCAGGCGGACTAGGAGCCAGCTTTGGGGACC	complete loss of induction	–	–
Antisense-D2: input RNA, SEQ ID NO: 22 (nucleic acid) antisense: TGTGCTCGCTTCGGCAGCACATATACTAACATTGGAACGATCCTGCAGGAGAGACAGAGAGAGAGAGGCTGGTAGAGGGAAGAGACAGAAGAAAGATGAAGGGATAAGTGTCCAGAATCCCTGCCCAGCACTCTCCCAGCACCCCGGGAGGCGCCCTGCCCGGCTGGCCCCAGCG	complete loss of induction	–	–
Antisense-D3: input RNA, SEQ ID NO: 23 (nucleic acid) antisense: TGTGCTCGCTTCGGCAGCACATATACTAACATTGGAACGATCCTGCAGTGAAGGGATAAGTGTCCAGAATCCCTGGATCTGGGATGGAATAAAGGATCTGGATGGTAAACGGAGAGTGCTGGGAGCGCTCGACCCTCGGGCGCACTCACCTGCCGCGCCGCGCTCCTCACACCCG	complete loss of induction	–	–
Sense-B1: input RNA, SEQ ID NO: 31 (nucleic acid) sense: TGTGCTCGCTTCGGCAGCACATATACTAACATTGGAACGATCCTGCAGCGGAGGCGGAGGGCGAGGGGCGGGGAGCGCCGCCTGGAGCGCGGCAGGTGAGGCAGTTTCTCCATCTGGAAATGCTCCCCACCATATTGATTTACCCAGTACACCCCATTCTTCAAGGCTCAGGCCA	failed to induce fusion transcripts	–	–
Sense-C1: input RNA, SEQ ID NO: 32 (nucleic acid) sense: TGTGCTCGCTTCGGCAGCACATATACTAACATTGGAACGATCCTGCAGGGTCCCCAAAGCTGGCTCCTAGTCCGCCTGCCCTCCACGGCCCCCGCCTGGGGTTAGTGCATGAAGAGTGTTACCAGGACGGGGTCTACCCAGTGCTCATCTATGTCATAGGAAGAGCATGAGCTCA	failed to induce fusion transcripts	–	–
Sense-D1: input RNA, SEQ ID NO: 33 (nucleic acid) sense: TGTGCTCGCTTCGGCAGCACATATACTAACATTGGAACGATCCTGCAGCGGGTGTGAGGAGCGCGGCGCGGCAGGTGAGTGCGCCCGAGGGTCGAGCGCTCAGGGATTCTGGACACTTATCCCTTCATCTTTCTTCTGTCTCTTCCCTCTACCAGCCTCTCTCTCTCTGTCTCTC	failed to induce fusion transcripts	–	–
Antisense-B1: input RNA, SEQ ID NO: 15 (nucleic acid) antisense: TGTGCTCGCTTCGGCAGCACATATACTAACATTGGAACGATCCTGCAGTGGCCTGAGCCTTGAAGAATGGGGTGTACTGGGTAAATCAAAATGGTGGGGAGCATTTCCAGATGGAGAAACTGCCTCACCTGCCGCGCTCCAGGCGGCGCTCCCCGCCCCTCGCCCTCCGCCTCCG	clearly induced fusion transcripts	LNCaP	–
Antisense-C1: input RNA, SEQ ID NO: 18 (nucleic acid) antisense: TGTGCTCGCTTCGGCAGCACATATACTAACATTGGAACGATCCTGCAGTGAGCTCATGCTATTCCTATGACATAGATGAGCACTGGGTAGACCCCGTCCTGGTAACACTATTCATGCACTAACCCCAGGCGGGGGCCGTGGAGGGCAGGCGGACTAGGAGCCAGCTTTGGGGACC	clearly induced fusion transcripts	LNCaP	–
Antisense-D1: input RNA, SEQ ID NO: 21 (nucleic acid) antisense: TGTGCTCGCTTCGGCAGCACATATACTAACATTGGAACGATCCTGCAGGAGAGACAGAGAGAGAGAGGCTGGTAGAGGGAAGAGACAGAAGAAAGATGAAGGGATAAGTGTCCAGAATCCCTGAGCGCTCGACCCTCGGGCGCACTCACCTGCCGCGCCGCGCTCCTCACACCCG	clearly induced fusion transcripts	LNCaP	–
Antisense-E1: input RNA, SEQ ID NO: 24 (nucleic acid) antisense: TGTGCTCGCTTCGGCAGCACATATACTAACATTGGAACGATCCTGCAGAGGGTATTCAGTATTACTATTTGGCTTAGATAAGCTGGTAGTTACTTGCTAAAATTAATCTTTATTATAAAGCAGAAAGCCGCATTCTGACATCACTCTCCATGGACAAAGATTCTTCGCTTGATCA	failed to induce fusion transcripts	–	–
Antisense-F1: input RNA, SEQ ID NO: 25 (nucleic acid) antisense: TGTGCTCGCTTCGGCAGCACATATACTAACATTGGAACGATCCTGCAGAATGGATGAATACATAAAATAAATTGTGGTGGATATATACAACGGAATATCATTTAGCCTTTATTATTATTGAGAACTGTGCCGAGCCGGGCAGGACAGGATGAGGTGGACCGAAGCGCCCAGGTGC	failed to induce fusion transcripts	–	–
Antisense-G1: input RNA, SEQ ID NO: 26 (nucleic acid) antisense: TGTGCTCGCTTCGGCAGCACATATACTAACATTGGAACGATCCTGCAGTTTATTCATGAGAAAATTCTGGCACAATGGAAAACCCTGGCAAGCAAAAGATAGGGGCAGCAGATGTCCTGGCCTACAAAGAACTCCAAGCCCATCGTCCCTAGAAAGCATGGTCTCCCATGACCCC	failed to induce fusion transcripts	–	–
Antisense-B2: input RNA, SEQ ID NO: 16 (nucleic acid) antisense: TGTGCTCGCTTCGGCAGCACATATACTAACATTGGAACGATCCTGCAGTGGCCTGAGCCTTGAAGAATGGGGTGTACTGGGTAAATCAAAATGGTGGGGAGCATTTCCAGATGGAGAAACTGCCCCTCCCCAGCCCGGACCCCGAGCCGGGACCCTGGTACCGGCGCCGCTCACC	complete loss of induction	–	–
